The target in one data set is T1, ADAR1 (UniProt P55265 296-1226).
T1 sequence: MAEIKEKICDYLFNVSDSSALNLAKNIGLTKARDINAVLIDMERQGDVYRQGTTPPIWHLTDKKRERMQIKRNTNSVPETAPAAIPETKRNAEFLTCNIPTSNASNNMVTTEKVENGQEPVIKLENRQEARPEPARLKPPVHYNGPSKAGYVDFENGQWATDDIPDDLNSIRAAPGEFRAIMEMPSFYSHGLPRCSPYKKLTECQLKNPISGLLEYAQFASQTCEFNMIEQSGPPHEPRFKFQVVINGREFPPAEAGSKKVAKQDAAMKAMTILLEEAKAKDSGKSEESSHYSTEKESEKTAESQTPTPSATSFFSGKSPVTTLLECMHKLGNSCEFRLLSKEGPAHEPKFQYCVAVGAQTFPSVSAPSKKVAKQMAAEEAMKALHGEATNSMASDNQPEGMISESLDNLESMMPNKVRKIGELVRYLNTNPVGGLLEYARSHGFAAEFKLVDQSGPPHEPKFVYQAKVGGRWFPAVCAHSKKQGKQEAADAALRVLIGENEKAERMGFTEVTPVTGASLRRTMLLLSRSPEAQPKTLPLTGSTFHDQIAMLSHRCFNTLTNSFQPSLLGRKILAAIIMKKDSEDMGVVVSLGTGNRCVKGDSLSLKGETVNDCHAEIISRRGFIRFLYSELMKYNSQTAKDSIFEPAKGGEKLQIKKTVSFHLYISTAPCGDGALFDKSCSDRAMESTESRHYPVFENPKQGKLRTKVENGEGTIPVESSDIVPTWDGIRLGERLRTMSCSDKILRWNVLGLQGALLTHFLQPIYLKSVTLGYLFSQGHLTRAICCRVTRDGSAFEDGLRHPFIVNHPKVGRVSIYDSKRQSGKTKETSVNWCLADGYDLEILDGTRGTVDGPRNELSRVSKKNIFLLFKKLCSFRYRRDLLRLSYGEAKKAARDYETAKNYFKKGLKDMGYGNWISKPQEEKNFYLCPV
Briefly: EMSA; dose-dependent shift; REMSA/UV: 0.5 pmol 32P probe, 1x REMSA binding buffer (Thermo), 0.1 ug/ul yeast tRNA, room temperature 30 min, 6% native PAGE; pull-down: 250 mM NaCl, 10 mM MgCl2, 50 mM Hepes pH 7.4, 0.5% Igepal CA-630, tRNA, 4 C or RT 30 min. The note with it: protein: recombinant; tags: FLAG; chain copies: 2; label: 5' 32P; hairpin. In general terms: In EMSA bound probe runs differently from free probe, usually more slowly.

A further data set addresses ADAR2 (UniProt P78563 1-741). The description is as above. The note with it: protein: recombinant; tags: FLAG; chain copies: 2; label: 5' 32P; hairpin.

B1: CCDC15 In8-9 WT (structured_RNA)
RNA: GGUAGAAAAGAAAAAUGACACUCGAGUGUUUUUUUCUCUUCUACUU
B1: the binding result with ADAR1 and in the data set with ADAR2 was “binds” in each case.

The values are drawn from publication PMC7005744, “Cis- and trans-regulations of pre-mRNA splicing by RNA editing enzymes influence cancer development”.
